The target of this test is SARS-CoV-2 spike protein ectodomain mutant S12AAA (L1145A-F1148A-L1152A) (SARS-CoV-2), P0DTC2. The test can be described thus: pull-down. Conditions: remark: other sources report otherwise.

B1: resistance to inhibitor of cholinesterase-3 (RIC3), Q7Z5B4 29-369 (natural protein)
chain: SRGKRQEPPPTPEGKLGRFPPMMHHHQAPSDGQTPGARFQRSHLAEAFAKAKGSGGGAGGGGSGRGLMGQIIPIYGFGIFLYILYILFKLSKGKTTAEDGKCYTAMPGNTHRKITSFELAQLQEKLKETEAAMEKLINRVGPNGESRAQTVTSDQEKRLLHQLREITRVMKEGKFIDRFSPEKEAEEAPYMEDWEGYPEETYPIYDLSDCIKRRQETILVDYPDPKELSAEEIAERMGMIEEEESDHLGWESLPTDPRAQEDNSVTSCDPKPETCSCCFHEDEDPAVLAENAGFSADSYPEQEETTKEEWSQDFKDEGLGISTDKAYTGSMLRKRNPQGLE
Molecule B1 returned a decrease in RIC3 binding vs S12 of 67%.

The values above are taken from article PMC9923440.
